Measurements from patent publication US20180162923A1 (UNIVERSITY OF BRITISH COLUMBIA, published 2018).

Key:
[1] = molecular target: DU145 cells; assay: flow cytometry on DU145 cells, rhIgGFc at 100 nM, detected with anti-IgGFc-specific PE secondary antibody (control)
[2] = molecular target: T1, PLEXIN B1 (human, UniProt O43157 20-2135); assay: alkaline phosphatase ligand binding assay on DU145 cells B1 siRNA1 against scramble siRNA; APTag background subtracted
T1 construct: whole, on cells; Endogenous receptor on cells
Method: (§1) Cells were washed and then lysed. Plexin B1 levels were analyzed from lysates (30 μg) by polyacrylamide gel electrophoresis (PAGE). Western Blots were probed with anti-Plexin B1 and anti-phospho-Shc. Blots were re-probed with anti-vinculin and anti-Shc as loading control. DU145 cells were transfected with scramble siRNA, Plexin B1siRNA1 or PlexinB1 siRNA2 (10 nM) using RNAiMax™ reagent as directed by the manufacturer, (Invitrogen™, Missisauga, Ontario). Following 72 hours incubation the cells were replated at 20,000 cells/well in a 96-well flat bottom plate and let adhere for 4 hours. The remaining cells were lysed and assayed for PlexinB1 expression by Western Blot. The blot was reprobed with vinculin as loading control. Medium was replaced with DMEM without serum for 16 hours prior to the binding assay. […]
(§2) The binding assay was performed as previously described by […], J G. and LEDER, P. (1990), endogenous phosphatase heat inactivation was done in HBHA at 65° C. following the fixation step. Plate readings at 562 nm were taken initially and then every 24 hours. […]
(§3) DU145 cells transfected with scramble siRNA or, two distinct siRNAs targeting Plexin B1. […] AP-Sema3C binding to DU145 cells that were transfected with scramble or Plexin B1 siRNAs, where the mean and SEM AP-Sema3C binding performed was calculated in quadruplicate.

[3] = molecular target: T1, PLEXIN B1; assay: alkaline phosphatase ligand binding assay on DU145 cells transfected with Plexin B1 siRNA B1 siRNA2 against scramble siRNA; APTag background subtracted
Method: as §1, §2, §3

T1 sequence (O43157 20-2135): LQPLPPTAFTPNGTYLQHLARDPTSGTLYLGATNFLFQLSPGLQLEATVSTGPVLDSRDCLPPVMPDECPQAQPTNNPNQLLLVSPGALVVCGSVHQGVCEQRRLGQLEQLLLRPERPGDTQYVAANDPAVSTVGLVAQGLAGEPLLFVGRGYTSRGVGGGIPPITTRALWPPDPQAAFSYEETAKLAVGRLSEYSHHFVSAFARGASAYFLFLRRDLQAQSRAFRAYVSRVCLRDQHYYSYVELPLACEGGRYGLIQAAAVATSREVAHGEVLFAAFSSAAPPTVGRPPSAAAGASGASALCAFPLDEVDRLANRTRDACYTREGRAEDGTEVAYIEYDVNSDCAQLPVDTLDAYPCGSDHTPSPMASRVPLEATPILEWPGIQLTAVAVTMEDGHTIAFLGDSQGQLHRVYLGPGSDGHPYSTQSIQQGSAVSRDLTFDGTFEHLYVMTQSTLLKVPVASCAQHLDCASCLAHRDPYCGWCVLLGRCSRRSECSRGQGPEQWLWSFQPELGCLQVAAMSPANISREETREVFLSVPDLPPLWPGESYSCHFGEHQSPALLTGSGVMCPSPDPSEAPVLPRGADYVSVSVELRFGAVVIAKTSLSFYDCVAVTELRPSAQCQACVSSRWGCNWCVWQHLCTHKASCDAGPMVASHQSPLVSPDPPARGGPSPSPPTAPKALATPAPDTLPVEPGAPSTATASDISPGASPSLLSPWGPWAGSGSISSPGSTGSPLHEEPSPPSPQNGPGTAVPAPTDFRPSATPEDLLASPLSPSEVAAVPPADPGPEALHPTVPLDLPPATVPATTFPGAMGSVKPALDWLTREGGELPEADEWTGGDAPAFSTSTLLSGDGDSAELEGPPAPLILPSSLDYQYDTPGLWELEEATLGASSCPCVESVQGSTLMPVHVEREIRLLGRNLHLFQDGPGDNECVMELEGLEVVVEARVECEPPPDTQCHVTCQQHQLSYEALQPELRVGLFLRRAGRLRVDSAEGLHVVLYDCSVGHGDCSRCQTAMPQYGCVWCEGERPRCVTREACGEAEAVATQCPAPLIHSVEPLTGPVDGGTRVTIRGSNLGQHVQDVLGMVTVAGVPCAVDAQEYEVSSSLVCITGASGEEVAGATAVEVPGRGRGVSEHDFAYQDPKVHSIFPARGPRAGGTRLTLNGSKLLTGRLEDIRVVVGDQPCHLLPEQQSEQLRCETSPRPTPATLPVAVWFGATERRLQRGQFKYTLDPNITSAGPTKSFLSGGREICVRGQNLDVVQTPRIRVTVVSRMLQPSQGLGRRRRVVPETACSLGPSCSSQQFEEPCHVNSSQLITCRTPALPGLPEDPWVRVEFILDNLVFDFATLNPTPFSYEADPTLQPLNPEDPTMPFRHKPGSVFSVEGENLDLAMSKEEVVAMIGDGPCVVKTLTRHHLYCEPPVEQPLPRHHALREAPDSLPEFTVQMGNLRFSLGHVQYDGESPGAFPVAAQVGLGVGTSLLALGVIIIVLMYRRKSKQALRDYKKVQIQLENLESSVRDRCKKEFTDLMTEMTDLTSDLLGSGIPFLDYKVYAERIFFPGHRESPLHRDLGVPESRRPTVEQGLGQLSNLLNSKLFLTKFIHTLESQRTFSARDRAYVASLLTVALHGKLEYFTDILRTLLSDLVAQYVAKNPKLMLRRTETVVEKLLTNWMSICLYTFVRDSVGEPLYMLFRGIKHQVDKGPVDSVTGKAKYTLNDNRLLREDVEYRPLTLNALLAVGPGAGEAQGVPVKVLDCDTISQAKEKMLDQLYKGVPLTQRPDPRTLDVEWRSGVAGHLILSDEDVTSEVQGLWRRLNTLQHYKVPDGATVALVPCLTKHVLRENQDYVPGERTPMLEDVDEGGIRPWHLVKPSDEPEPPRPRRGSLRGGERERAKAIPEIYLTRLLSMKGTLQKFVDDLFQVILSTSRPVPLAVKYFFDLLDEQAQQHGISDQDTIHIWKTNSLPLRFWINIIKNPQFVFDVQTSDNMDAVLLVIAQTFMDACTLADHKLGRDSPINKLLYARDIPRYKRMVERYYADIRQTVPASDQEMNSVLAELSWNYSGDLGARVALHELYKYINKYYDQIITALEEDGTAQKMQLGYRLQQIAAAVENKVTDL

level of staining at 100 nM [1] [%]	fold reduction of binding on Plexin B1 knockdown against scramble siRNA [2] [fold]	fold reduction of binding on Plexin B1 knockdown against scramble siRNA [3] [fold]	Molecule
6.01			Recombinant human IgGFc
	2.4	1.9	AP-SEMA3C (ligand, UniProt Q99985 21-751, looked up, Used as conditioned medium from 293T cells; also called AP-SEMA 3C construct; not shown: alkaline phosphatase tag of the APTag vector) GSSQPQARVYLTFDELRETKTSEYFSLSHHPLDYRILLMDEDQDRIYVGSKDHILSLNINNISQEALSVFWPASTIKVEECKMAGKDPTHGCGNFVRVIQTFNRTHLYVCGSGAFSPVCTYLNRGRRSEDQVFMIDSKCESGKGRCSFNPNVNTVSVMINEELFSGMYIDFMGTDAAIFRSLTKRNAVRTDQHNSKWLSEPMFVDAHVIPDGTDPNDAKVYFFFKEKLTDNNRSTKQIHSMIARICPNDTGGLRSLVNKWTTFLKARLVCSVTDEDGPETHFDELEDVFLLETDNPRTTLVYGIFTTSSSVFKGSAVCVYHLSDIQTVFNGPFAHKEGPNHQLISYQGRIPYPRPGTCPGGAFTPNMRTTKEFPDDVVTFIRNHPLMYNSIYPIHKRPLIVRIGTDYKYTKIAVDRVNAADGRYHVLFLGTDRGTVQKVVVLPTNNSVSGELILEELEVFKNHAPITTMKISSKKQQLYVSSNEGVSQVSLHRCHIYGTACADCCLARDPYCAWDGHSCSRFYPTGKRRSRRQDVRHGNPLTQCRGFNLKAYRNAAEIVQYGVKNNTTFLECAPKSPQASIKWLLQKDKDRRKEVKLNERIIATSQGLLIRSVQGSDQGLYHCIATENSFKQTIAKINFKVLDSEMVAVVTDKWSPWTWASSVRALPFHPKDIMGAFSHSEMQMINQYCKDTRQQHQQGDESQKMRGDYGKLKALINSRKSRNRRNQLPES
